Reference: IntAct's records for PubMed 20185822

B1: Autoimmune regulator (Homo sapiens), O43918 (parent)
chain: MATDAALRRLLRLHRTEIAVAVDSAFPLLHALADHDVVPEDKFQETLHLKEKEGCPQAFHALLSWLLTQDSTAILDFWRVLFKDYNLERYGRLQPILDSFPKDVDLSQPRKGRKPPAVPKALVPPPRLPTKRKASEEARAAAPAALTPRGTASPGSQLKAKPPKKPESSAEQQRLPLGNGIQTMSASVQRAVAMSSGDVPGARGAVEGILIQQVFESGGSKKCIQVGGEFYTPSKFEDSGSGKNKARSSSGPKPLVRAKGAQGAAPGGGEARLGQQGSVPAPLALPSDPQLHQKNEDECAVCRDGGELICCDGCPRAFHLACLSPPLREIPSGTWRCSSCLQATVQEVQPRAEEPRPQEPPVETPLPPGLRSAGEEVRGPPGEPLAGMDTTLVYKHLPAPPSAAPLPGLDSSALHPLLCVGPEGQQNLAPGARCGVCGDGTDVLRCTHCAAAFHWRCHFPAGTSRPGTGLRCRSCSGDVTPAPVEGVLAPSPARLAPGPAKDDTASHEPALHRDDLESLLSEHTFDGILQWAIQSMARPAAPFPS

Variants of: B1
Conditions: with daxx_human DAXX
With W78R the “effect of a mutation on the interaction” value was “decreasing interaction”.
